Experimental data from the supplement of paper PMC10126150.
± gives the standard deviation of the averaged measurements.

test system: ATP; experiment: switch fluorescence ratio, 500 uM ATP over buffer (Cy3 cluster intensity, sum of 5 cycles each) (fold (ratio)); higher = stronger signal-on switching upon ATP binding; sequences stand for … in TCGTCGGCAGCGTCAGATGTGTATAAGAGACAGTTTTTTTTTTTTTTTTTTTTTTTTT…TC; conditions: aptamer strand: ATP DNA aptamer (quencher-CACCTGGGGGAGTATTGCGGAGGAAGG + anchor), 100 nM annealed; ATP concentration: 500 uM
In short: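 Cy3-labelled switching-strand clusters on a modified Illumina MiSeq flow-cell were annealed to 100 nM quencher-labelled ATP aptamer, imaged in selection buffer, then imaged after 15 min with 500 uM ATP at 22 °C. Five buffer/ATP cycles ran, with NaOH stripping and re-annealing between them. The fluorescence ratio is summed target-cycle over summed buffer-cycle Cy3 intensity per cluster, averaged per switch-domain sequence. Clusters outside 100-1000 RFU were excluded.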
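Further: ATP exposure 15 min at 22 °C before imaging.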

In order of rising switch fluorescence ratio:
1. AGTCGTTTGC  0.938 ± 0.061
2. AGTGAGTCGT  0.961 ± 0.035
3. AGTCGTATTT  0.963 ± 0.019
4. AGTTATTATT  0.963 ± 0.0055
5. AGTGTGGGCA  0.965 ± 0.026
6. AGTTTGTCAT  0.967 ± 0.032
7. AGTTTTTGGG  0.97 ± 0.037
8. AGTTGAGAGG  0.972 ± 0.0088
9. AGTCTTGGTG  0.973 ± 0.018
10. AGTGTAGAGC  0.975 ± 0.017
11. AGTTTTGGGC  0.976 ± 0.016
12. AGTTGGAAAG  0.977 ± 0.013
13. AGTTGGAGTT  0.978 ± 0.043
14. AGTGGGGCT  0.9794 ± 0.0071
15. AGTGGTGGGC  0.979 ± 0.056
16. AGTTAGTATG  0.979 ± 0.032
17. AGTTTAAGAA  0.98 ± 0.031
18. AGTCTGTAGT  0.981 ± 0.036
19. AGTTGTGCGT  0.981 ± 0.012
20. AGTCGGGCGC  0.983 ± 0.051
21. AGTGGGGGTT  0.983 ± 0.019
22. AGTTGATTGG  0.983 ± 0.027
23. AGTCGGTGCA  0.9855 ± 0.0013
24. AGTGGTTTAT  0.985 ± 0.014
25. AGTGTCCTGG  0.986 ± 0.013
26. AGTTGCTAAG  0.986 ± 0.035
27. ATAAAAAATC  0.986 ± 0.017
28. AGTGTGACAG  0.987 ± 0.018
29. AGTCGTGCGG  0.988 ± 0.037
30. AGTGATATGA  0.9882 ± 0.0021
31. AGTCGGATGT  0.989 ± 0.023
32. AGTCGGGGGG  0.989 ± 0.021
33. AGTGTCCGAT  0.9895 ± 0.0053
34. AGTGTTTGGT  0.989 ± 0.021
35. ATAAAAATCG  0.989 ± 0.027
36. AGTGGTACCG  0.99 ± 0.024
37. AGTGGTGGTG  0.9902 ± 0.0039
38. AGTGTCAGAA  0.9896 ± 0.0084
39. AGTTAAAGGT  0.992 ± 0.023
40. AGTTGGGTCA  0.993 ± 0.044
41. AGTGTTTTTG  0.9936 ± 0.0011
42. AGTTTGCTTT  0.995 ± 0.035
43. AGTGCGTTTC  0.996 ± 0.031
44. AGTTGCCGCG  0.996 ± 0.012
45. AGTTGCGTTG  0.996 ± 0.015
46. AGTTGCCTG  0.997 ± 0.08
47. AGTTTGACTC  0.997 ± 0.026
48. AGTTGTTTTG  0.998 ± 0.015
49. AGTGGGGTTA  0.999 ± 0.04
50. AGTTAGAGTC  0.99925 ± 0.00026
51. AGTCGCCTGG  1.003 ± 0.002
52. AGTGAAAGTT  1 ± 0.012
53. AGTGCGGACA  1 ± 0.051
54. AGTGCTAGGG  1 ± 0.024
55. AGTGGCAGTG  1 ± 0.022
56. AGTGTGGCCT  1 ± 0.025
57. AGTGTTCGCG  1 ± 0.015
58. AGTTAGATCT  1.005 ± 0.009
59. AGTTAGTTGT  1 ± 0.028
60. AGTTATGTGG  1 ± 0.056
61. AGTTGAACCA  1 ± 0.012
62. AGTTGTTTG  1.002 ± 0.0099
63. AGTTTAGAAT  1.001 ± 0.0052
64. AGTTTTCCAT  1.0004 ± 0.00055
65. AGTTTTGGTC  1.002 ± 0.0056
66. AGTCGAGGGG  1.01 ± 0.02
67. AGTCTAGAGA  1.015 ± 0.0095
68. AGTGAGCTAT  1.01 ± 0.018
69. AGTGATTTCG  1.01 ± 0.043
70. AGTGGATTGT  1.01 ± 0.046
71. AGTGGTGGGA  1.01 ± 0.033
72. AGTTAACCGG  1.006 ± 0.0027
73. AGTTAGGCAA  1.01 ± 0.014
74. AGTTGGGGCT  1.01 ± 0.023
75. AGTTGGGTGT  1.01 ± 0.013
76. AGTTGTTGGT  1.01 ± 0.014
77. AGTTTAGGTA  1.01 ± 0.052
78. AGTTTGGGTG  1.01 ± 0.0051
79. AGTCGGAAAG  1.02 ± 0.015
80. AGTCGGTTAA  1.02 ± 0.046
81. AGTCTAAATA  1.02 ± 0.02
82. AGTGAGGTGC  1.02 ± 0.01
83. AGTGCCGTAA  1.025 ± 0.0056
84. AGTGTTGGGT  1.02 ± 0.01
85. AGTTGATCCC  1.02 ± 0.025
86. AGTGAGTTTT  1.03 ± 0.024
87. AGTGTGAGGC  1.03 ± 0.028
88. AGTTCTGGCC  1.03 ± 0.068
89. AGTTTATCGT  1.03 ± 0.043
90. AGTGCGGGGG  1.036 ± 0.0073
91. AGTGGGCAGG  1.04 ± 0.02
92. AGTGTACTAG  1.045 ± 0.0022
93. AGTTACGCGC  1.04 ± 0.032
94. AGTTATTGTG  1.04 ± 0.094
95. ATAAAACGC  1.04 ± 0.071
96. AGTGTTCGTC  1.05 ± 0.011
97. AGTTAGAGGT  1.05 ± 0.018
98. AGTTACTGGG  1.06 ± 0.046
99. AGTTTGACCT  1.15 ± 0.032
100. AGTTGAGCAA  1.29 ± 0.048
